These results are taken from patent US20210388081A1 (Memorial Sloan Kettering, published 2021).

Experiment [1] addresses T1, FcRL4, overexpressed on 3T3 cells (UniProt Q96PJ5 20-515, limits assumed).
T1 construct: whole, on cells
T1 sequence (looked up): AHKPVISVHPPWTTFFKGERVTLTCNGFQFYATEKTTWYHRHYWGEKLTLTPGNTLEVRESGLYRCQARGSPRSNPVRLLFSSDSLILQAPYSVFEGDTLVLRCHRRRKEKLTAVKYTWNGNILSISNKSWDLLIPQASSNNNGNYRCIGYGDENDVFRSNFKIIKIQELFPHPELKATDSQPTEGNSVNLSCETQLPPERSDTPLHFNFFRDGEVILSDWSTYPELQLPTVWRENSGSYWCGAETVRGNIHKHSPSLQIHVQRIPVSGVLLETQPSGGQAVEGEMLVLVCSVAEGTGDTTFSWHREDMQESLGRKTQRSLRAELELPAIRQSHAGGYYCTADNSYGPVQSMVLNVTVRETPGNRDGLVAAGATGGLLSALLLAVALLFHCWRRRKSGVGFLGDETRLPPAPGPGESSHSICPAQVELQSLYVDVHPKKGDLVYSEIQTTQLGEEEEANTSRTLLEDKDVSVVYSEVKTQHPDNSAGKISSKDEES
In words: phage clone on 3T3-FcRL4 cells.

Experiment [2] concerns the target T2, FcRL6, overexpressed on 3T3 cells (UniProt Q6DN72 20-434, limits assumed).
T2 construct: whole, on cells
T2 sequence (looked up): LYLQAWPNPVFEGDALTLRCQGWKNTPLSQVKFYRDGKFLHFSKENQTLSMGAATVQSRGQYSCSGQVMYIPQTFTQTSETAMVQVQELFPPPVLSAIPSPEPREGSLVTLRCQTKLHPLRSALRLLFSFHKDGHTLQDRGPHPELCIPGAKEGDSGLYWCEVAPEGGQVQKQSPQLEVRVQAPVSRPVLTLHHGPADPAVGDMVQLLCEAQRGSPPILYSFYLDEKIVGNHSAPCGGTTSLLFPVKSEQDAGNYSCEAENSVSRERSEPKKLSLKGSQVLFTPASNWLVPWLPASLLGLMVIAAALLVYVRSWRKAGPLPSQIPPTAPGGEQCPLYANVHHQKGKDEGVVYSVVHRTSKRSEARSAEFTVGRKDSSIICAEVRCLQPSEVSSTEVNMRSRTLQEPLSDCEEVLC
In words: phage clone on 3T3-FcRL6 cells.

B1: ET200-014 (scFv)
scFv: SYVLTQPPSVSVAPGKTARITCGGNNIGSKSVHWYQQKPGQAPVLVIYYDSDRPSGIPERFSGSNSGNTATLTISRVEAGDEADYYCQVWDSSSDHYVFGTGTKVTVLGSRGGGGSGGGGSGGGGSLEMAEVQLVETGGGLVQPGGSLRLSCAASGFTFSSYAMSWVRQAPGKGLEWVSAISGSDGSTYYADSVKGRFTISRDNSKNTLYLQMNSLRDEDTAVYYCARSHEANLVGDWWGQGTLVTVSSTSGQAGQHHHHHHGAYPYDVPDYAS
notes: screened as phage clone; entry is VL-linker-VH-His tag-HA tag
As to B1, the binding result in experiment [1] and in experiment [2] was “no binding” in each case.

B2: ET200-016 (scFv)
scFv: SSELTQDPAVSVALGQTVKITCQGDSLTDYHATWYQQKPGQAPVAVIYATNNRPTGIPDRFSGSSSGNTASLTITGAQAEDEADYYCNSRDSGTDEVLFGGGTKLTVLGSRGGGGSGGGGSGGGGSLEMAEVQLVETGGGLVKPGGSLRLSCAASGFTFSSYSMNWVRQAPGKGLEWVSSISSSSSYIYYADSVKGRFTISRDNAKNSLYLQMNSLRAEDTAVYYCARGQGYDYWGQGTLVTVSSTSGQAGQHHHHHHGAYPYDVPDYAS
notes: as for B1
Turning to B2, the binding result in experiment [1] and in experiment [2] was “no binding” each time.

B3: ET200-011 (scFv)
scFv: QSVVTQPPSVSAAPGQRVTISCSGSSSNISIYDVSWYQQLPGTAPKLLIYGNNKRPSGIADRFSGSTSGTSATLGITGLQTGDEADYYCGTWDDSLSGGVFGGGTKLTVLGSRGGGGSGGGGSGGGGSLEMAQMQLVQSGAEVKKPGSSVKVSCEASGGTLSSYAINWVRQAPGQGLEWMGGIIPMFGTAHYAQKFQGRVTITADESTKTAYMELSSLRSEDTAVYYCARGVHYASFDHWGQGTLVTVSSTSGQAGQHHHHHHGAYPYDVPDYAS
notes: as for B1
For B3, the binding result in experiment [1] and in experiment [2] was “no binding” in each case.

B4: ET200-013 (scFv)
scFv: QSVVTQPPSVSGAPGQRVTISCTGSTSNIGAGYDVHWYQQLPGTAPKLLIYTNNFRPSGVPDRFSASKSGTSASLAITGLQAEDEADYYCGTWDSSLSAVVFGGGTKLTVLGSRGGGGSGGGGSGGGGSLEMAEVQLVESGTEVKKPGASVKVSCKASGYMFTSYGLNWVRQAPGQGLEWMGWISANNGKTNYAKKFQDRVTMTRDTSTSTGYMELRSLRSDDTAVYYCARHIGGSYFDRWGQGTLVTVSSTSGQAGQHHHHHHGAYPYDVPDYAS
notes: as for B1
With B4, the binding result in experiment [1] and in experiment [2] was “no binding” throughout.

B5: ET200-015 (scFv)
scFv: QSVVTQPPSVSVAPGKTARITCGGNNIGSKSVHWYQQKPGQAPVLVIYYDSDRPSGIPERFSGSNSGNTATLTISRVEAGDEADYYCQVWDSSSDVVFGGGTKLTVLGSRGGGGSGGGGSGGGGSLEMAEVQLVQSGAEVKKPGASVKVSCKASGYTFTSYGISWVRQAPGQGLEWMGWISAYNGNTNYAQKLQGRVTMTTDTSTSTAYMELRSLRSDDTAVYYCARWGGFGAVDHWGQGTLVTVSSTSGQAGQHHHHHHGAYPYDVPDYAS
notes: as for B1
On to B5, for which the binding result in experiment [1] and in experiment [2] was “no binding” in each case.

B6: ET200-012 (scFv)
scFv: QSVLTQPPSVSAAAGQKVTISCSGSDSNIGNNYVSWYQHLPGTAPKLLIYDVKNRPSGIPDRFSGSKSGSSATLGIAGLQPGDEADYYCGTWDSRLDAYVFGTGTKVTVLGSRGGGGSGGGGSGGGGSLEMAQMQLVQSGAEVKKPGASVKVSCKTSGFPFNIFGITWVRQAPGQGLEWMGWISGYNGNTDYPQKFQGRVTMSTDTSTSTAYMELRNLKSDDTAVYYCARGAYGGMDTWGQGTLVTVSSTSGQAGQHHHHHHGAYPYDVPDYAS
notes: as for B1
In the case of B6, the binding result in experiment [1] and in experiment [2] was “no binding” in each case.
